# According to publication PMC2173288 (The Journal of Cell Biology, 2002):
# B1: Bet1p-(41–119) (domain or fragment)
# chain: TDKLDYSQSTLASLESQSEEQMGAMGQRIKALKSLSLKMGDEIRGSNQTIDQLGDTFHNTSVKLKRTFGNMMEMARRSG
# B2: Bet1p-GST (domain or fragment)
# chain: MSSRFAGGNAYQRDTGRTQLFGPADGSNSLDDNVSSALGSTDKLDYSQSTLASLESQSEEQMGAMGQRIKALKSLSLKMGDEIRGSNQTIDQLGDTFHNTSVKLKRTFGNMMEMARRSG
# Columns and labels:
# Glo3p = Glo3p (UniProt P38682 1-493); assay: pull-down
# Sar1p = Sar1p (UniProt P20606 1-190); assay: pull-down
# Sequence of Sar1p (P20606 whole entry): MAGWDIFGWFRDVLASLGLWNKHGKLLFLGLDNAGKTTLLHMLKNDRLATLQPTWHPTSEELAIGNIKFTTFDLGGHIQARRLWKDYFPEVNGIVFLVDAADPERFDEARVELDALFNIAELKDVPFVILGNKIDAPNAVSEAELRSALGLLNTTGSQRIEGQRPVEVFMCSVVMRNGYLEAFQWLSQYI
# Sequence of Glo3p (P38682 whole entry): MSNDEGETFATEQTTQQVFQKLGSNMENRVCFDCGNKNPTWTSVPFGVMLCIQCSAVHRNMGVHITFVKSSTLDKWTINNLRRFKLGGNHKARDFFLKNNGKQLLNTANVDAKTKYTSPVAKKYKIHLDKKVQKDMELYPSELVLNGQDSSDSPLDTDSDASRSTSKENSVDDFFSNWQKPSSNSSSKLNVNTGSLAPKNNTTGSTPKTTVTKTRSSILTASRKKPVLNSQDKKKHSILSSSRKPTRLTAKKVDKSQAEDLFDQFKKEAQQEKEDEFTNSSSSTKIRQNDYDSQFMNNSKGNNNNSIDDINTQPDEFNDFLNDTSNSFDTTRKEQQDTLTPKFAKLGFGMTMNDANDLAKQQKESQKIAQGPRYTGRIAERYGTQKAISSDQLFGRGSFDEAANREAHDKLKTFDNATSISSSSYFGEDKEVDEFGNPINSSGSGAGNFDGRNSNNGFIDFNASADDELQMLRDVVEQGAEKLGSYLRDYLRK
Binder,binding result (Glo3p),binding result (Sar1p)
B1,binds,
B2,,binds
